Measurements reported in doi:10.1101/2022.07.21.500383 (bioRxiv, 2022).
Blank lines part the entries; values can stand above or below the binder they belong to.

Legend:
Test in all cases: ITC
[1] = biological target: IL-11_(Δ10/PAIDY)/IL-11Rα_(D1-D3) binary complex (human) (UniProt P20809)
[2] = biological target: IL-11_(Δ10/W147A)/IL-11Rα_(D1-D3) binary complex (human) (UniProt P20809)
[3] = biological target: T1, IL-11Δ10/IL-11Rα_(D1-D3) binary complex (human, UniProt P20809 32-199; Q14626 23-317)
T1 sequence 1: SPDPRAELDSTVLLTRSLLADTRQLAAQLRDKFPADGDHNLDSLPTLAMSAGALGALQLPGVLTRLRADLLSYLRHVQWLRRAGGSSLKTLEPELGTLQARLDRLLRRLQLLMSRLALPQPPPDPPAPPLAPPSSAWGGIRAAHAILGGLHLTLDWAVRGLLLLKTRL
T1 sequence 2: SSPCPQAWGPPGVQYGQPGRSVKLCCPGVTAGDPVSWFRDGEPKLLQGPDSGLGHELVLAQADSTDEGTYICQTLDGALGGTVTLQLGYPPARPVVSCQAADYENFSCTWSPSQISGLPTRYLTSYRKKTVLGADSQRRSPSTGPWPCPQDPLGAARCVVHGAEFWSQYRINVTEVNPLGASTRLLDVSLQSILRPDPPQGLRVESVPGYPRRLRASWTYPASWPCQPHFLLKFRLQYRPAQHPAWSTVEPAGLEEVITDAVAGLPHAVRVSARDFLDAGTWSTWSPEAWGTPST

[4] = biological target: IL-11_(Δ10/Mutein)/IL-11Rα_(D1-D3) binary complex (human) (UniProt P20809)

Kd [1]: 60 nM
Kd [2]: 130 nM
Kd [3]: 380 nM
dH [3]: 6.45 kcal/mol
B1: gp130_(D2-D3) (receptor, human, UniProt P40189 123-325, looked up)
chain: GLPPEKPKNLSCIVNEGKKMRCEWDGGRETHLETNFTLKSEWATHKFADCKAKRDTPTSCTVDYSTVYFVNIEVWVEAENALGKVTSDHINFDPVYKVKPNPPHNLSVINSEELSSILKLTWTNPSIKSVIILKYNIQYRTKDASTWSQIPPEDTASTRSSFTVQDLKPFTEYVFRIRCMKEDGKGYWSDWSEEASGITYEDR

Kd [4]: 55 nM
Kd [1]: 20 nM
Kd [3]: 3 nM
dH [3]: -8.13 kcal/mol
B2: gp130_(D1-D3) (cytokine binding domains of gp130) (receptor, human)
chain: ELLDPCGYISPESPVVQLHSNFTAVCVLKEKCMDYFHVNANYIVWKTNHFTIPKEQYTIINRTASSVTFTDIASLNIQLTCNILTFGQLEQNVYGITIISGLPPEKPKNLSCIVNEGKKMRCEWDGGRETHLETNFTLKSEWATHKFADCKAKRDTPTSCTVDYSTVYFVNIEVWVEAENALGKVTSDHINFDPVYKVKPNPPHNLSVINSEELSSILKLTWTNPSIKSVIILKYNIQYRTKDASTWSQIPPEDTASTRSSFTVQDLKPFTEYVFRIRCMKEDGKGYWSDWSEEASGITYEDR
modifications: N-linked glycans at N21, N61, N135 (visible in the structures)

dH [3]: -4.78 kcal/mol
B3: gp130EC (complete extracellular domains of gp130, D1-D6) (receptor, human, UniProt P40189 23-619, looked up)
chain: ELLDPCGYISPESPVVQLHSNFTAVCVLKEKCMDYFHVNANYIVWKTNHFTIPKEQYTIINRTASSVTFTDIASLNIQLTCNILTFGQLEQNVYGITIISGLPPEKPKNLSCIVNEGKKMRCEWDGGRETHLETNFTLKSEWATHKFADCKAKRDTPTSCTVDYSTVYFVNIEVWVEAENALGKVTSDHINFDPVYKVKPNPPHNLSVINSEELSSILKLTWTNPSIKSVIILKYNIQYRTKDASTWSQIPPEDTASTRSSFTVQDLKPFTEYVFRIRCMKEDGKGYWSDWSEEASGITYEDRPSKAPSFWYKIDPSHTQGYRTVQLVWKTLPPFEANGKILDYEVTLTRWKSHLQNYTVNATKLTVNLTNDRYLATLTVRNLVGKSDAAVLTIPACDFQATHPVMDLKAFPKDNMLWVEWTTPRESVKKYILEWCVLSDKAPCITDWQQEDGTVHRTYLRGNLAESKCYLITVTPVYADGPGSPESIKAYLKQAPPSKGPTVRTKKVGKNEAVLEWDQLPVDVQNGFIRNYTIFYRTIIGNETAVNVDSSHTEYTLSSLTSDTLYMVRMAAYTDEGGKDGPEFTFTTPKFAQGEIE
modifications: N-linked glycans at N21, N61, N135 (visible in the structures)
